T1: Pol α catalytic subunit (334-1462), as subunit of the truncated human primosome (human, UniProt P09884 334-1462)
T1 construct: also called DNA polymerase α; catalytic subunit of Pol α
T1 sequence (looked up): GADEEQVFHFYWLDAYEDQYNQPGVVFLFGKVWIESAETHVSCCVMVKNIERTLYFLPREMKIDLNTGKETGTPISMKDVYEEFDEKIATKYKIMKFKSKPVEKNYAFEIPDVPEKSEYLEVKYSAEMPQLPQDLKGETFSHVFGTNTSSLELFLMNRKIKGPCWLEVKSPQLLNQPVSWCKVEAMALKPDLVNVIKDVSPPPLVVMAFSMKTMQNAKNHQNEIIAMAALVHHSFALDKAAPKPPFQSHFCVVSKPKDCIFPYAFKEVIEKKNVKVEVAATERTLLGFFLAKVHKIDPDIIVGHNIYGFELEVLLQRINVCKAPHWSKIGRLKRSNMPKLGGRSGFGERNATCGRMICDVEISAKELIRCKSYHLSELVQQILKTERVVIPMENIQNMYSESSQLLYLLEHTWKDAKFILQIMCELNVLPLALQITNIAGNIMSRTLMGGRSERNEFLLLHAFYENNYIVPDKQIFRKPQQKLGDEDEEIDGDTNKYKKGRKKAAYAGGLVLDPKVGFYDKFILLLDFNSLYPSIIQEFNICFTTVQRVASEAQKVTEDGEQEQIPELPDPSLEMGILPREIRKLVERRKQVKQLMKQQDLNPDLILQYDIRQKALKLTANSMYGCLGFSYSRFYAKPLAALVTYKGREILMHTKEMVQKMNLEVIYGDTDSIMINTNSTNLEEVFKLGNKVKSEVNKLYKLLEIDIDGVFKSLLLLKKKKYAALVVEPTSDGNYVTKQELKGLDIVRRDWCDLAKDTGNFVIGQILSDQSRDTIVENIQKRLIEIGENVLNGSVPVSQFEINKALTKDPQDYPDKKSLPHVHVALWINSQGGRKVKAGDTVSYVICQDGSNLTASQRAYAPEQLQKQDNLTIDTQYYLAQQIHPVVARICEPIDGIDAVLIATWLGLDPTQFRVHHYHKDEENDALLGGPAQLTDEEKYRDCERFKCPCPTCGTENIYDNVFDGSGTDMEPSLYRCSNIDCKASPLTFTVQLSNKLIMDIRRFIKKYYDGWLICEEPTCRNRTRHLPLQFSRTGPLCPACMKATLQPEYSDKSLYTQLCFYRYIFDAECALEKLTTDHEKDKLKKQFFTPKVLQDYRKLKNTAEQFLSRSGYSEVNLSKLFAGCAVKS


How the values were obtained:
Conditions in all cases: both partners purified
[1] = target: T2, Truncated human primosome (Pol α 334-1462; B subunit 149-598; PriS 1-420; PriL 1-509) (human, UniProt P09884 334-1462; Q14181 149-598; P49642 1-420; P49643 1-509); assay: cryo-EM structure
T2 construct: also called truncated primosome; Pol α–primase

[2] = target: T1, Pol α catalytic subunit (334-1462), as …; assay: cryo-EM structure
[3] = target: T2, Truncated human primosome (Pol α …); assay: pull-down
[4] = target: T3, Full-length human primosome (DNA polymerase α–primase complex) (human, UniProt P09884 1-1462; Q14181 1-598; P49642 1-420; P49643 1-509); assay: pull-down
T3 construct: also called Pol α–primase; full-length primosome
T3 sequence (Q14181 whole entry, chain 2 of 3): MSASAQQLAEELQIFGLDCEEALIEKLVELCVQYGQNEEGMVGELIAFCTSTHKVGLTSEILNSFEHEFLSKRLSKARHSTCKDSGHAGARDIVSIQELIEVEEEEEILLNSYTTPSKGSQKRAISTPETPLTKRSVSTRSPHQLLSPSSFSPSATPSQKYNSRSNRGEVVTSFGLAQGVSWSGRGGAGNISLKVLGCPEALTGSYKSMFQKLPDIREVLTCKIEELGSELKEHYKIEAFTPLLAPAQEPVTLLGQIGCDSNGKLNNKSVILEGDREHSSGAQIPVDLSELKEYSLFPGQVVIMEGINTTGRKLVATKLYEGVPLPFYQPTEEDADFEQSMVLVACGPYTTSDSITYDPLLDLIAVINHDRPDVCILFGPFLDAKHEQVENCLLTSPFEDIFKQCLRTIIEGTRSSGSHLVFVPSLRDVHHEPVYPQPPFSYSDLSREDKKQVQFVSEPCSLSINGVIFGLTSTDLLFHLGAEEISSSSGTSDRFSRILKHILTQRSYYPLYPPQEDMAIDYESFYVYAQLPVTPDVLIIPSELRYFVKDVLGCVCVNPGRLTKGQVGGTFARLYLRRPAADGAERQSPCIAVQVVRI
T3 sequence (P49642 whole entry, chain 3 of 3): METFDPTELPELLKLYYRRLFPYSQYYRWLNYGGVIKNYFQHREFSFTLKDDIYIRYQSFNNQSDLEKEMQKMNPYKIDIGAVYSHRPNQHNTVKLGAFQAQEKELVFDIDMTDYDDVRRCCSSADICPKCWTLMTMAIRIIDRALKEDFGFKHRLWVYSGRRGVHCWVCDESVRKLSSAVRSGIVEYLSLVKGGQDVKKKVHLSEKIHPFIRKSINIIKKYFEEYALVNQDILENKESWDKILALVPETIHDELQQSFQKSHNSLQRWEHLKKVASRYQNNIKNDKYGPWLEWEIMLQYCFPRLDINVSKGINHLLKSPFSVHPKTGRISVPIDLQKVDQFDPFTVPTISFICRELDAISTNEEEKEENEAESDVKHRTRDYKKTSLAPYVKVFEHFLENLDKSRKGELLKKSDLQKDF
T3 sequence (P49643 whole entry, chain 4 of 3): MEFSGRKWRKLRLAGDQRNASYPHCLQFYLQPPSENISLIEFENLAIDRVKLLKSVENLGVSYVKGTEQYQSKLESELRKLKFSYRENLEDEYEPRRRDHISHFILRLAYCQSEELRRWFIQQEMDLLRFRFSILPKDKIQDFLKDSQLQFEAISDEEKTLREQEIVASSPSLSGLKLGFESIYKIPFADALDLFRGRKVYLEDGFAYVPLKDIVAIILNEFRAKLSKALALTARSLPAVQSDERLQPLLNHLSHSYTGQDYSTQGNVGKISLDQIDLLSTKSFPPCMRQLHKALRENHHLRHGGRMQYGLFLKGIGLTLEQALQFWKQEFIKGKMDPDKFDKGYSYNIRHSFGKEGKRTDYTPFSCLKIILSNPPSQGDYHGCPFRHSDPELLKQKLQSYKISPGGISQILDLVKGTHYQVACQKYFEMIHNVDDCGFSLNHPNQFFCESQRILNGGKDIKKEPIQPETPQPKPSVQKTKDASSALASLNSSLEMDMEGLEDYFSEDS

T2 sequence (Q14181 149-598, chain 2 of 3): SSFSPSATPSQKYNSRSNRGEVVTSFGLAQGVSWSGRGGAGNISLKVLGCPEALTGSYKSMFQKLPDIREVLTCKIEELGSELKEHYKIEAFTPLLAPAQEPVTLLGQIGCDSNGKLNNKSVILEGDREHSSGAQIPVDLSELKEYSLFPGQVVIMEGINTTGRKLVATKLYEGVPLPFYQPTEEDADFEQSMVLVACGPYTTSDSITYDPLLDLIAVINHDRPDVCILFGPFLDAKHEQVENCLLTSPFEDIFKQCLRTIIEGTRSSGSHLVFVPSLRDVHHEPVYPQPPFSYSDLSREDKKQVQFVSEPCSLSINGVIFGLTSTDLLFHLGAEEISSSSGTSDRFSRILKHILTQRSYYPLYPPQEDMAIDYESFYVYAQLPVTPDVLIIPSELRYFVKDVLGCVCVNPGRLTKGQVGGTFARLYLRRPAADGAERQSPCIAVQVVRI
T2 sequence (P49642 whole entry, chain 3 of 3, the tested form may be a part): as the sequence (P49642 whole entry, chain 3 of 3) above
T2 sequence (P49643 whole entry, chain 4 of 3, the tested form may be a part): as the sequence (P49643 whole entry, chain 4 of 3) above

Binder | binding result [1] | binding result [2] | binding result [3] | binding result [4]
SARS-CoV nsp1 (13-127), His6-MBP tag cleaved (domain or fragment) HVQLSLPVLQVRDVLVRGFGDSVEEALSEAREHLKNGTCGLVELEKGVLPQLEQPYVFIKRSDALSTNHGHKVVELVAEMDGIQYGRSGITLGVLVPHVGETPIAYRNVLLRKNG | binds | binds |  | 
His6-MBP-tagged SARS-CoV nsp1 middle domain (13-127) (domain or fragment) HVQLSLPVLQVRDVLVRGFGDSVEEALSEAREHLKNGTCGLVELEKGVLPQLEQPYVFIKRSDALSTNHGHKVVELVAEMDGIQYGRSGITLGVLVPHVGETPIAYRNVLLRKNG |  |  | binds | 
His6-MBP-tagged SARS-CoV-2 nsp1 middle domain (13-127) (domain or fragment) HVQLSLPVLQVRDVLVRGFGDSVEEVLSEARQHLKDGTCGLVEVEKGVLPQLEQPYVFIKRSDARTAPHGHVMVELVAELEGIQYGRSGETLGVLVPHVGEIPVAYRKVLLRKNG |  |  | binds | 
His6-MBP-tagged SARS-CoV nonstructural protein 1 (nsp1), full length (natural protein) MESLVLGVNEKTHVQLSLPVLQVRDVLVRGFGDSVEEALSEAREHLKNGTCGLVELEKGVLPQLEQPYVFIKRSDALSTNHGHKVVELVAEMDGIQYGRSGITLGVLVPHVGETPIAYRNVLLRKNGNKGAGGHSYGIDLKSYDLGDELGTDPIEDYEQNWNTKHGSGALRELTRELNGG |  |  | binds | binds
